Target: T1, GST-CARD9 (human, UniProt Q9H257 1-536)
T1 sequence (looked up): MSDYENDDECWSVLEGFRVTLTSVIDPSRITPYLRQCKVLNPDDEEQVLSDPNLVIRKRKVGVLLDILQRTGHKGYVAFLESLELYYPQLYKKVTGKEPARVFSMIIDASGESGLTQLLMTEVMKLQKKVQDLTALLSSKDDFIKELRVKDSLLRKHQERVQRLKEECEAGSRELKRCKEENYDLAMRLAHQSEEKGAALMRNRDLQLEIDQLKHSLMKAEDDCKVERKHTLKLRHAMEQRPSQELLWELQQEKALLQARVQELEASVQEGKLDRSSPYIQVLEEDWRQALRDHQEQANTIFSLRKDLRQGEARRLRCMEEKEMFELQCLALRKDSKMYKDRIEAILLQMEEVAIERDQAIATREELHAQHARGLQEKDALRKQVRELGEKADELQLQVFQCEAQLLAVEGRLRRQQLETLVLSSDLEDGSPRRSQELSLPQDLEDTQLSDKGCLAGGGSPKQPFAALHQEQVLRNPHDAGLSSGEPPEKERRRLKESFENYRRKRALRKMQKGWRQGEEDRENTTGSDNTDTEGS
Assay: ELISA

binding result: binds
B1: purified FLAG-tagged CARD9 WT (natural protein, human, UniProt Q9H257 1-536, looked up)
chain: MSDYENDDECWSVLEGFRVTLTSVIDPSRITPYLRQCKVLNPDDEEQVLSDPNLVIRKRKVGVLLDILQRTGHKGYVAFLESLELYYPQLYKKVTGKEPARVFSMIIDASGESGLTQLLMTEVMKLQKKVQDLTALLSSKDDFIKELRVKDSLLRKHQERVQRLKEECEAGSRELKRCKEENYDLAMRLAHQSEEKGAALMRNRDLQLEIDQLKHSLMKAEDDCKVERKHTLKLRHAMEQRPSQELLWELQQEKALLQARVQELEASVQEGKLDRSSPYIQVLEEDWRQALRDHQEQANTIFSLRKDLRQGEARRLRCMEEKEMFELQCLALRKDSKMYKDRIEAILLQMEEVAIERDQAIATREELHAQHARGLQEKDALRKQVRELGEKADELQLQVFQCEAQLLAVEGRLRRQQLETLVLSSDLEDGSPRRSQELSLPQDLEDTQLSDKGCLAGGGSPKQPFAALHQEQVLRNPHDAGLSSGEPPEKERRRLKESFENYRRKRALRKMQKGWRQGEEDRENTTGSDNTDTEGS

Reference: PMC4672733 (Immunity, 2015)
